Results: the supplement of paper PMC10567573

B1: SETD8 (parent)
chain: FVVEYHGDLIEITDAKKREALYAQ
B2: TRIM35 (parent)
chain: WEVQVSPTCPVCKDRASPADLRTN

Variants of: B1
Assay: protein stability index of a GFP-peptide fusion (GPS, HEK-293T) (PSI 1-6); higher = more stable
Conditions: c terminus: a fixed tail appended
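Also: lentivirally expressed fusions sorted by FACS into six bins by GFP to DsRed ratio, PSI derived from sequencing read proportions per bin multiplied by bin number.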

Protein stability index of substitutions, site by site:
L9: T 2.06, N 2.86, R 1.8, M 1.46, Y 1.68, C 2.25, Q 2.73, V 2.47, W 1.47, I 1.59, A 2.31, K 2.58, P 2.26, S 1.74, H 1.93, D 2.91, G 1.59, F 3.03, E 2.42
V3: I 2.83, G 3.07, A 1.81, N 3.01, S 1.84, W 2.12, E 2.83, H 2.77, Q 2.32, Y 1.99, R 2.02, P 2.03, K 2.36, F 1.51, D 2.15, C 2.24, T 2.23, L 1.98, M 2.64
D8: A 1.65, Q 1.59, Y 1.84, K 1.82, V 3.4, H 1.56, S 2.33, M 3.28, E 2.15, T 1.45, G 2.01, F 2.77, L 2.85, C 2.01, N 1.7, P 1.83
Y5: V 2.06, F 1.88, L 1.89, G 2.4, W 1.43, C 2.05, H 2.1, Q 2.93, A 1.99, M 2.11, N 2.73, P 3.03, K 2.68, T 2.32, D 3.2, I 1.95, S 2.41, E 3.86, R 2.67
H6: W 1.35, Q 2.06, T 1.76, E 2.88, F 2.12, C 3.73, P 2, G 2.15, A 1.9, D 3.13, Y 2.16, K 1.74, M 2.04, L 2.02, N 2.2, I 2.19, S 2.31, R 2.18
E4: W 1.44, C 1.82, Y 1.72, S 1.76, Q 2.69, A 2.3, V 1.6, D 2.35, M 1.67, I 1.03, K 1.45, F 1.88, H 1.6, R 1.97, T 1.74, N 1.92, L 2.61, P 1.84, G 3.07
I10: S 2.21, R 1.82, Q 2.5, G 2.11, H 1.64, A 2.08, F 2.1, K 2.28, W 1.21, T 2.01, C 1.99, M 1.67, L 2.17, N 1.88, E 2.21, P 2.25, V 1.56, D 2.58, Y 1.61
G7: S 1.89, F 2.87, E 2.33, K 1.66, D 2.33, R 2.76, I 3.15, C 1.76, Q 1.83, H 2.08, V 1.11, M 1.08, A 1.56, N 2.34, T 1.94, P 2.65
E11: D 2.36, C 3.07, A 1.14
F1: G 4.8, R 3.74, Y 2.62, D 4.46, A 4.23, H 4.35, I 2.37, K 3.65, S 4.43, M 2.71, L 1.85, P 4.46, C 3.3, N 4.78, E 4.75, T 4.14, Q 4.63, V 2.5
V2: S 2.97, W 1.32, F 2.19, C 3.25, T 2.38, I 1.83, D 4.2, Y 1.66, M 2.49, P 4.09, K 3.6, N 3.64, G 3.95, H 3.65, L 2.13, A 3.83, R 3.02, Q 3.12, E 3.73

Variants of: B2
Assay: as above
Conditions: c terminus: a fixed tail appended

Protein stability index: each site, then its substitutions
Q4: P 3.58, N 2.73, S 1.87, C 2.2
P10: E 2.23, F 2.89, R 2.42, H 2.81, T 2.38, Q 3.01, N 2.58
P18: V 2.57, Y 2.15, S 2.51, T 2.57, Q 2.13
V5: G 2.48, M 2.41, Y 2.58, W 2.4, P 1.68, I 2.27, N 2.71, T 3.03
A16: V 2.49, Y 2.08, C 1.41, S 2.42, N 1.84, H 2.71, T 2.79, I 1.28, W 1.85
K13: R 1.46, E 2.71, W 2.09, V 2.7, G 1.7, T 2.31
C12: H 3.46, T 4.54, D 4.14, F 3.29, I 3.4
T8: I 2, G 2.48, N 2.79, A 3.17, P 2.92, K 2.39
P7: G 3.03, I 1.97, N 1.8, Y 2.31, R 2.19
A19: L 2.12, D 3.38, S 1.78, H 2.24, P 2.02, T 1.75
S17: P 2.83, T 2.05, E 3.89, M 2.01, Y 4.01, N 2.51, L 2.75
V3: S 3.38, N 3.38, I 2.89, F 2.39, Q 2.96, T 3.5, L 2.55
R15: Y 2.34, P 3.31, W 2.53, V 2.74, A 3.22, N 2.48
C9: P 3.11, M 3.15, D 4.9, L 1.98, I 3.53, G 3.97, A 4.38
D20: I 1.47, P 1.85, C 1.91
N24: S 2.57, R 2.74, H 1.42, Y 1.6, P 2.47, E 2.29
V11: W 2.88, A 2.37, F 1.78
D14: W 2.71, I 1.93, L 2.62, V 1.61
T23: K 3.12, E 2.83, F 1.82, M 2.5, D 3.45, Q 2.58, V 2.06, N 2.74
L21: H 2.54, N 3.21, K 3.15, E 2.98, A 3.04, Y 2.57, S 2.58
R22: T 2.91, F 2.22, I 2.7, G 2.03, D 3.8, C 2.91, K 3.34, H 2.54, Q 3.33
W1: H 3.37, T 2.79, Y 2.65, A 3.05, P 3.29, E 3.52, F 2.85
E2: M 1.41, N 2.3, D 2.2, V 2.21, H 2.51, R 1.98, G 2.56, C 2.46
S6: I 2.12, K 1.85, L 2.6, P 2.87, Y 2.07, H 3.03
